Key:
[1] = biological target: SavR;SavS (Staphylococcus aureus (NCTC8325?);Staphylococcus aureus (NCTC8325?)) (UniProt Q2FVF8); assay: ITC; conditions: EMSA: 20 mM Tris-HCl pH 8.0, 100 mM NaCl, 25 C, 20 min; footprinting: same plus 5 mM MgCl2, 1 mM CaCl2, 25 C 30 min; ITC: 20 mM Tris-HCl pH 8.0, 100 mM NaCl …
[2] = tested on: SavR (Staphylococcus aureus (NCTC8325?)); assay: ITC; conditions: EMSA: 20 mM Tris-HCl pH 8.0, 100 mM NaCl, 25 C, 20 min; footprinting: same plus 5 mM MgCl2, 1 mM CaCl2, 25 C 30 min; ITC: 20 mM Tris-HCl pH 8.0, 100 mM NaCl …

TACGCTAATTATAGCGTACGCACTTGAGTACGTCAA (double strand) [36-bp savRS operator]
Kd [1]: 0.0267 µM
Kd [2]: 9.13 µM

Reference: article PMC5913840
